Reference: the supplement of paper PMC12042874
± gives the uncertainty stated by the source.

Experiment: amyloid nucleation score (Sup35N fusion, yeast selection) (log enrichment); library NNK3; higher = more nucleation; inactive = no reads after selection
How it was run: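 In psi-negative yeast, Sup35N fusions carrying peptides of 20 random codons were induced with 100 μM copper sulfate for 24 hours. The cells then grew 7 days at 30°C on medium lacking adenine and uracil, and plasmid inserts from input and output were Illumina-sequenced, excluding sequences with under 100 input reads. Nucleation score is the DiMSum log enrichment of output over input reads, centred on the mode score of non-aggregating sequences.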

Substance | amyloid nucleation score
SWSFMFSFSNSATNAACLPQ | 0.327 ± 0.27
DYYSCFISYRLIRYWICGEA | inactive
GSTTWYDLMIYLDME | inactive
DGDIVQCSSLCKVSGFLFTS | inactive
ICPTWELNIRP | inactive
CYRISSESWSTWWIYFWSCR | inactive
NLNYRLADSCLNSVLDRLGQ | inactive
AHLTSVYVKTPSFEINISNK | inactive
NSTDRGLEFRTDHYHT | inactive
YLEKAL | inactive
FYGHQVNISGDNGVRTRPEV | inactive
NNLFELPWKFYEQRNVAELM | inactive
WVCTVVLVKDLPPRRSVLVG | inactive
GSVTEGFVGLG | inactive
RYKRTGIWCFECNRVLVEVF | inactive
VGSCIVKMIDFASTKGRGLI | inactive
SSELLLHGGTYYKIIYK | 0.586 ± 0.12
RFSNAMLMCLVTNVSC | 0.451 ± 0.61
MVKTFVLMTLHLGLMVRFLF | inactive
SFMRRCNVCIRLYSLAFDMT | 0.542 ± 0.23
WVCYNKFSVCVWLVDKAD | 2.01 ± 0.095
TSWCNSKPCEILYVGSMAKE | inactive
ESMRGSYSYYSSGCLHD | inactive

Substance | amyloid nucleation score
LCFFVERRLKGYDVGLSNLL | inactive
ILAVAPVVPGVVLGRNCRAR | inactive
HRVIWSFSFVRSDFCFPYCA | inactive
PSMKL | inactive
TLSLPLMTRWSLYLCSDWAS | inactive
HSSSLLRLQPVVHYLLLNVD | inactive
CECTRVCRVCPSVSMHAIK | inactive
PLEVLAKFFWDDWATHSMDL | inactive
AFTHVTSVMTVQDSLGLCLL | inactive
CWNDSLLCYMSSTMGNVQTT | inactive
FVSVDGWSESMWLASVVLSE | inactive
MFECNWAIFRREFLRLVCTV | inactive
RTFFYWIKLAINFSNVCRGF | inactive
GFRMGLTHCHSALKEFRFCH | inactive
HGTIVIDYRHSPW | 1.07 ± 0.1
CTYLAVVTMMDEELWGIRWN | inactive
TNVRALA | inactive
LVFASSVSSSDLTLCVGSCM | -0.594 ± 2.4
VSSSDNSVEIDRVHKMSMVE | inactive
SLNMSN | inactive
SRWNK | inactive
TGVSVECLLLWSWSVVWRCM | inactive
IRAEGQKIYDLPSFCVLIPR | inactive

Substance | amyloid nucleation score
IEIFEFFSRSSNRSQPGAPL | inactive
YEKYDTKVWNCG | inactive
FGRTHAYSLFQKKSGFLLTP | inactive
QFLLGWNPNTSDLVLTFVQQ | 1.15 ± 0.14
LGYLRFVLIYQTCCQLTKSP | -0.617 ± 0.6
DFDAC | 0.021 ± 0.52
LCDSGWELMYKLCTDKDMIL | inactive
VVSHGF | inactive
YFQGWSMVCSDVSTGKSVVM | inactive
VVVGIGVAALYEPV | inactive
DIRYLISSTRYLDVMEGFLV | inactive
RNKRLKLILYLHRVDEAVAE | inactive
LLLRLLTMMVFNCILVDYGL | inactive
FDYWCKVMSHEYYVEEPNIY | inactive
RVPYR | inactive
NVLCSVRC | inactive
RVGRSR | -0.176 ± 1.4
FGTLFSTVFRVLRFNRISAP | inactive
GRCRITKSLGGSSQTNGYWV | inactive
LETLVKPLELGSYFDFCCWA | inactive
WKEWLGMGLLVSNAGHKQGG | inactive
GIRYQRFVRRVFHDYWR | inactive
SYRYFGGSDYRLCGGIWMLA | inactive

Substance | amyloid nucleation score
ISNLRSVVLWNSRLQRNRGW | inactive
SLSPDPFEFLLLSLLLRSAV | inactive
GTALLRFGIVGPNDLVRLCC | inactive
RAYSYPSDYWW | -0.122 ± 0.43
QTVNWSDDL | inactive
LLKEFIL | inactive
VITTVTTWGLRAGDVMRRTR | 1.11 ± 0.17
FDDPHGTVTCED | -0.176 ± 0.98
LSALHSVYLINAISFGFNQT | 1.09 ± 0.13
CVRYSRSGWVCDTGRLKDPC | inactive
DVRFVRDAGAVFLIILSERH | inactive
KGFTDWFWCFTPVVEWKSIT | inactive
YVCCHERWVGFYSGK | inactive
LLRVCVSFRCIVNSCMRR | inactive
YFIVSWFFQNCFR | 1.19 ± 0.12
DDYLPMISPFRCYSQFKYIS | inactive
MKVWFSLPRILGGVKGTANK | inactive
SFLTDMPKTKVYCAMNLPMI | -0.121 ± 0.66
KSVKARYSDSSMW | inactive
AFRGCSSLYS | inactive
RMCGSCYLCYCRERRGYTAF | inactive
YLVRLVSDITRKNR | 2.37 ± 0.071
VMWEPFAYLFISSWRYVSLK | inactive

Substance | amyloid nucleation score
GYMWNRVGCLVEDDHNEGVN | inactive
GYQNVSTHRVKALAHRIWVG | inactive
LRYGEFSCSNLYFTWLSFIL | 0.749 ± 0.17
LNLGHDGYPNTSARVFHFC | inactive
TVMPLRMSSISGSAGTSA | inactive
VAAFVNRARNATFVLALYCY | inactive
RVVLMWDYLIDF | 1.08 ± 0.16
KYTVEVNFLAFLRHIYCTSG | inactive
LSFSRDRLLHSSWGTKLMIM | inactive
YSVDGICTRAVLGPVDWVNG | inactive
AYRYTHVCDMVLKWAVCCFY | inactive
YHDFLYIEGWQMSETNSFEC | inactive
HRSNCDYDIQYVYIFFS | 2.36 ± 0.063
IRSVVIRVSFYFTWF | inactive
SLLLLSGFEVSSKR | inactive
FLVCSGSNVWTREASHGGGN | -0.188 ± 0.47
FLVLFTL | inactive
SNLNWPWKYPNMWFLLS | inactive
FSSRHVTPCIRINFNIVSCS | inactive
TGRVCFLCYTMSLIWSSPVT | 0.07 ± 0.7
TDAIVFMEHSDVGRSSLDWN | inactive
HLIST | inactive
NTIDYHYKVSCSHGYSLQSY | inactive

Substance | amyloid nucleation score
IGMTRGMGLVVFYSRYMWDD | inactive
HRRLGRTFFCATLGLHLCDF | inactive
TSYDFTMARYCSNDYVFIWH | 2.44 ± 0.061
QGGGVCPCPKMVSFQMMYVI | inactive
DALRL | inactive
RWNEAHITSYVYSRTSMWVF | inactive
TWWFK | -0.234 ± 0.28
DMFNLNLFGLLNCLGVMEET | 1.31 ± 0.072
NRFYVD | inactive
WSVSKCDVLGLNSDVFKLWL | inactive
FPVSMENFKYA | inactive
KSYWCNVGAIENT | inactive
IGWGVQFELFGTWRVEIPLV | inactive
CNCVYSSANFCDIMYTNRLG | 1.14 ± 0.085
IHKLHYIYGGLMSTWLLEDT | inactive
ALGIICVGLAFDGSLDLTS | 1.25 ± 0.15
HSVIRRFNIPMELYHMWLIS | inactive
LAYQGSGLIQQLAGLKHTTV | inactive
LNCDIVFELL | inactive
PRPWRL | inactive
SQYHQASNAMWVLFSGI | inactive
VGIKTFGESGMYQVCSQVSC | inactive
CRKEYIFYLFHIIMSQARNI | inactive

Substance | amyloid nucleation score
SGMTGCTFRYGSRIQF | inactive
IRPSLLMSLQNNDMMADLEV | -0.538 ± 0.55
SCMSYDLRQL | inactive
QYRRRVYDYVGCTRLWKNLW | -0.682 ± 0.93
YYLVSSMFYMFQSNEVNGNM | inactive
GSNQMPDPPHWPRDYNAEKR | inactive
KWASFLFYFDVMSYSARELN | -0.32 ± 0.84
CMTFLNIYSNGQLSGTYCLF | 1.59 ± 0.083
VQWAEVAEMKGWGVANAWW | inactive
FFRTGFLVGNSSEYYMQY | 0.215 ± 0.46
SLNNCGLLWYPSTTPPESLG | inactive
CSSQTIRGTDKSHDVLAKLL | inactive
GSSIEPDWL | inactive
VTRPVVSQ | inactive
ETVDSFVM | inactive
TDDAGMYDNRFQSMSDENTF | inactive
YNRLIMSSELSMIGTTCISY | inactive
YDFYTIVNIRTLHPRLIFFM | -0.195 ± 0.9
YIMAFCCLLPNPPVSVLMAH | inactive
